This data set deals with N2A, Hepa1-6 and B16-F10 cells. Put plainly: AFP promoter-driven NanoLuc reporter and AFP qRT-PCR. The class given is cell-based, murine. Conditions: AFP-deficient cell lines, 48 h. For orientation: Quantitative PCR measures a nucleic acid by following its amplification.

Description: (A) Quantification of AFP-levels using (left panel) TSP-driven reporter gene expression and (right panel) qRT-PCR. (left panel) N2A, Hepa1-6 and B16-F10 cells were co-transfected with a PMusAFP-driven NanoLuc expression vector (pSLM54) and a constitutive FLuc expression vector (pYW99). Luciferase levels were quantified at 48 h after transfection. Data presented are mean±SD of relative luciferase activity (NanoLuc/FLuc) for n=3 individual experiments. (right panel) Relative AFP expression levels in N2A, Hepa1-6 and B16-F10 cells were profiled by qRT-PCR using murine AFP-specific primers listed in Table S1 and normalized to the gene encoding murine ribosomal protein (Rplp0).
Reverse transcription-polymerase chain reaction (RT-PCR). For quantitative analysis, PCR reaction was carried out with an initial step of 95° C. for 30 s followed by 40 cycles of 95° C. for 10 s and 60° C. for 30 s on the Applied Biosystems QuantStudio 1 Real-Time PCR System (ThermoFisher Scientific) using the ChamQ Universal SYBR qPCR Master Mix (Vazyme Biotech; cat. no. Q711-02) and the primers listed in Table S1. The relative cycle threshold (CT) was determined and normalized against the expression level of endogenous human glyceraldehyde 3-phosphate dehydrogenase (GAPDH) or murine ribosomal protein (Rplp0) genes. […]

B1: PAFP: alpha-fetoprotein (AFP) promoter, model tissue-specific promoter (nucleic acid)
DNA: AGGGGAAATAATCTATTTGAACAGTTTAGATGGTGAAGAACATTTGCAGCATTTGCAAGATTTTTTTCCACTCTGAAGTGGTCTTTGTCCTTGAACATAGGATACAAGTGACCCCTGCTCTGTTAATTATTGGCAAATTGCCTAACTTCAACGTAAGGAAATAGAGTCATATGTTTGCTCACTGAAGGTTACTAGTTAACAGGCATCCCTTAAACAGGATATAAAAGGACTTCAGCAGGACTGCTCGAAACATCCCACTTCCAGCACTGCCTGCGGTGAAGGA
Turning to B1, the “promoter-driven reporter gene expression (NanoLuc/FLuc)” value is on record as “non-specific PAFP-driven reporter gene expression”.

The values above are taken from patent US20260209789A1, “TRIGGER-INDUCIBLE MRNA CIRCULARIZATION” (WESTLAKE UNIVERSITY, priority 2022, published 2026).
